This is an account of results in patent US20140186359A1 (TORAY INDUSTRIES, published 2014).

Bounds are passed on as bounds.

The target in assay [1] is T1, human CAPRIN-1 expressed on the surface of human cancer cells (human, UniProt Q14444 2-709).
T1 construct: Endogenous CAPRIN-1 of human cancer cell lines or tissues; also called CAPRIN-1 proteins on the cell membrane surface
T1 sequence: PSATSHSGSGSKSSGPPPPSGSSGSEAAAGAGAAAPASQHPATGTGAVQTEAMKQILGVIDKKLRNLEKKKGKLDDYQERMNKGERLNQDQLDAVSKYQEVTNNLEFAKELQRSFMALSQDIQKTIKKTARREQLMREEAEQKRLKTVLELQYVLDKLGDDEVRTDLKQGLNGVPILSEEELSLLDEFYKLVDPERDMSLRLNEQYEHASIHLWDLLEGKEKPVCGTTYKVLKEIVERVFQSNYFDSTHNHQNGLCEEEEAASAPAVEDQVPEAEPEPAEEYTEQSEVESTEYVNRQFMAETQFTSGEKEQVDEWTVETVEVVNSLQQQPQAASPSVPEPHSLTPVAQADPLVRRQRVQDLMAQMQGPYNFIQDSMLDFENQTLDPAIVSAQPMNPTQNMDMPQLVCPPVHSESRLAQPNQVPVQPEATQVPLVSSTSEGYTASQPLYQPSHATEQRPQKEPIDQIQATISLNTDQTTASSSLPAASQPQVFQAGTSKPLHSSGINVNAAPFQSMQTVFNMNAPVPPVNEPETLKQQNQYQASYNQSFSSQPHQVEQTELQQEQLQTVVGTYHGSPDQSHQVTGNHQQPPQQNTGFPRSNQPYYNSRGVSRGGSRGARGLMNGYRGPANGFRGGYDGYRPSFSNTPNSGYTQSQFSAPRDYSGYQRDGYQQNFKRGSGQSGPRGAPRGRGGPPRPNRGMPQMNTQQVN
The experiment in a line: flow cytometry on the listed human cancer cell lines, culture supernatant, against secondary antibody only. As for the experimental part:
10⁶ cells of each cell line were centrifuged in each 1.5-ml microcentrifuge tube. Each culture supernatant (100 μl) containing any of the antibodies #1, #2, and #3 and the chicken monoclonal antibodies #1, #2, #3, and #4 was added to the tube and left to stand for 1 hour on ice. After washing with PBS, FITC-labeled goat anti-mouse IgG (H+L) antibodies (manufactured by Jackson ImmunoResearch Laboratories, Inc.) diluted with PBS containing 0.1% FBS for the mouse-derived antibodies or FITC-labeled goat anti-chicken IgG (H+L) antibodies (manufactured by SouthernBiotech) diluted 100-fold with PBS containing 0.1% FBS for the chicken-derived antibodies were added thereto and left to stand at 4° C. for 30 minutes. After washing with PBS, the fluorescence intensity was measured using FACSCalibur (Becton, Dickinson and Company). The negative control used was cells reacted only with secondary antibodies. As a result, all the cells each treated with any of the antibodies #1, #2, and #3 and the chicken monoclonal antibodies #1 to #4 had fluorescence intensity at least 35% stronger than that of the negative control. […] The rates of enhancement in the fluorescence intensity was expressed as the rates of increase in mean fluorescence intensity (MFI) in respective cell lines, which are calculated according to the following formula.
For orientation: A flow cytometer gives signals particle by particle.

Assay [2] has as its target T2, partial CAPRIN-1 polypeptide consisting of the amino acid sequence of SEQ ID NO: 5 (human).
T2 construct: Peptide coupled to Immobilizer Amino ELISA plate
T2 peptide: VFNMNAPVPPVNEPETLK
In words: peptide ELISA, culture supernatant. As for the experimental part: The obtained mouse monoclonal antibodies #2 and #3 were examined for their specific reaction with the amino acid sequence of SEQ ID NO: 5 as a partial CAPRIN-1 sequence used as an immunogen. A 30 μg/ml solution of the amino acid sequence of SEQ ID NO: 5 prepared with a 0.1 M aqueous sodium carbonate solution and a partial CAPRIN-1 sequence free from the amino acid sequence of SEQ ID NO: 5 were each added to a 96-well plate Immobilizer Amino for ELISA (Nunc) at […] and reacted for one whole day and night at 4° C. to bind the peptides to the wells. A 0.1 M aqueous sodium carbonate solution containing 10 mM ethanolamine was added to the peptide-bound wells and left to stand at room temperature for 1 hour. The solution in each well was removed, and each well was then washed with PBS-T. Then, a Blockace solution was added thereto at 400 μl/well and left to stand at room temperature for 3 hours. The solution in each well was removed, and each well was washed with PBS-T. Then, the culture supernatant containing the mouse monoclonal antibody #2 was added thereto at […] and reacted at room temperature for 1 hour. […] The absorbance was measured at 450 nm and 595 nm using an absorption spectrometer.

B1: mouse monoclonal antibody #3 (antibody, V domains shown)
VH: GGGLVKPGGSLKLSCAASGFTFSSYGMSWVRQTPEKRLEWVATISSGGSYTYYPDSVKGRFTISRDNAKNTLYLQMSSLRSEDTAMYYCASLASYYFDYWGQGTTLTVSS
VL: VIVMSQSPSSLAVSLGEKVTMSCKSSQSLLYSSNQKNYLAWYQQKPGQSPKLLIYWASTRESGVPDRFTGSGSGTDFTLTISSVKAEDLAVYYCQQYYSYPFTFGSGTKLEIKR
notes: Mouse hybridoma antibody; detected with anti-mouse IgG; also called anti-CAPRIN-1 monoclonal antibody #3
Turning to B1, the “rate of increase in mean fluorescence intensity” value in assay [1] was ≥ 35%. Further, in assay [2], the binding result is given as “binds”.
